# From paper PMC5773619, “Specific cyclic ADP-ribose phosphohydrolase obtained by mutagenic engineering of Mn^2+-dependent ADP-ribose/CDP-alcohol diphosphatase” (Scientific Reports, 2018)
# Experiments:
# Type in all cases: biochemical, Homo sapiens
# Settings in all cases: 50 mM Tris-HCl pH 7.5, 0.4 mM MnCl2, 0.1 mg/ml BSA, 37 °C
# [1] = substrate: C[N+](C)(C)CCOP(=O)(O)OP(=O)([O-])OC[C@H]1O[C@@H](n2ccc(N)nc2=O)[C@H](O)[C@@H]1O; assay: colorimetric phosphate assay coupled to alkaline phosphatase
# [2] = substrate: Nc1ncnc2c1ncn2[C@@H]1O[C@H](CO)[C@H]2OP(=O)(O)O[C@H]21; assay: as above
# [3] = substrate: N=c1c2ncn3c2ncn1[C@@H]1O[C@H](COP(=O)(O)OP(=O)(O)OC[C@H]2O[C@@H]3[C@H](O)[C@@H]2O)[C@@H](O)[C@H]1O; assay: HPLC assay of pRibAMP formation
# Text: HPLC assay of pRibAMP formation on human ADPRibase-Mn | displaying a decreased kcat for cADPR (Supplementary Table S1)
# [4] = substrate: N=c1c2ncn3c2ncn1[C@@H]1O[C@H](COP(=O)(O)OP(=O)(O)OC[C@H]2O[C@@H]3[C@H](O)[C@@H]2O)[C@@H](O)[C@H]1O; assay: HPLC assay of pRibAMP formation, initial rates, Michaelis-Menten fit
# [5] = substrate: C[N+](C)(C)CCOP(=O)(O)OP(=O)([O-])OC[C@H]1O[C@@H](n2ccc(N)nc2=O)[C@H](O)[C@@H]1O; assay: colorimetric phosphate assay coupled to alkaline phosphatase, Michaelis-Menten fit
# [6] = substrate: Nc1ncnc2c1ncn2[C@@H]1O[C@H](CO)[C@H]2OP(=O)(O)O[C@H]21; assay: as above
protein,measurement,setting,value
"human ADPRibase-Mn (Homo sapiens; C253V) (protein, human liver cDNA, pGEX-6P-3-hADPRM, E. coli BL21; GST tag removed with PreScission protease, N-terminal extension … kept) MDDKPNPEALSDSSERLFSFGVIADVQFADLEDGFNFQGTRRRYYRHSLLHLQGAIEDWNNESSMPCCVLQLGDIIDGYNAQYNASKKSLELVMDMFKRLKVPVHHTWGNHEFYNFSREYLTHSKLNTKFLEDQIVHHPETMPSEDYYAYHFVPFPKFRFILLDAYDLSVLGVDQSSPKYEQCMKILREHNPNTELNSPQGLSEPQFVQFNGGFSQEQLNWLNEVLTFSDTNQEKVVIVSHLPIYPDASDNVVLAWNYRDALAVIWSHECVVCFFAGHTHDGGYSEDPFGVYHVNLEGVIETAPDSQAFGTVHVYPDKMMLKGRGRVPDRIMNYKKERAFHC",Km,[1],"1,120 ± 115 µM"
same,kcat,[1],109 ± 9 s⁻¹
same,Km,[2],"2,380 ± 250 µM"
same,kcat,[2],148 ± 8 s⁻¹
same,Km,[3],0.56 ± 0.18 mM
same,kcat,[3],1.6 ± 0.1 s⁻¹
"human ADPRibase-Mn (Homo sapiens; C253G/F37A/L196F/V252A) (protein, human liver cDNA, pGEX-6P-3-hADPRM, E. coli BL21; GST tag removed with PreScission protease, N-terminal extension … kept) MDDKPNPEALSDSSERLFSFGVIADVQFADLEDGFNAQGTRRRYYRHSLLHLQGAIEDWNNESSMPCCVLQLGDIIDGYNAQYNASKKSLELVMDMFKRLKVPVHHTWGNHEFYNFSREYLTHSKLNTKFLEDQIVHHPETMPSEDYYAYHFVPFPKFRFILLDAYDLSVLGVDQSSPKYEQCMKILREHNPNTEFNSPQGLSEPQFVQFNGGFSQEQLNWLNEVLTFSDTNQEKVVIVSHLPIYPDASDNAGLAWNYRDALAVIWSHECVVCFFAGHTHDGGYSEDPFGVYHVNLEGVIETAPDSQAFGTVHVYPDKMMLKGRGRVPDRIMNYKKERAFHC",Km,[4],0.14 mM
same,kcat,[4],13 s⁻¹
same,Km,[5],10.6 mM
same,kcat,[5],37 s⁻¹
same,Km,[6],8.7 mM
same,kcat,[6],12 s⁻¹
